In the Immune Epitope Database (IEDB) one finds Kd data, which are given here for 10 sequences.

Bounds are passed on as bounds.

The target in test [1] is HLA-A*01:01. Put plainly: IEDB peptide-MHC binding, purified MHC/direct/fluorescence; filed as Kd, often an IC50 or EC50 that approximates it; ≥ and ≤ were set here for values at or beyond the usual limits of such assays.
In test [2] the target is HLA-A*02:01. The test is described as above.
Test [3] has as its target HLA-A*03:01. Described as above.
Test [4] deals with HLA-A*11:01. The description is as above.
Test [5] concerns the target HLA-A*29:02. Described as above.
In test [6] the target is HLA-A*31:01. The test is described as above.
In test [7] the target is HLA-A*69:01. Described as above.
The target of test [8] is HLA-B*15:01. The description is as above.
Test [9] concerns the target HLA-B*18:01. Described as above. Particulars: source organism: Mycobacterium tuberculosis.
Test [10] concerns the target HLA-B*27:05. The description is as above.
Test [11] deals with HLA-B*39:01. The test is described as above.
In test [12] the target is HLA-B*44:02. The description is as above.
In test [13] the target is HLA-B*46:01. Described as above.
For test [14], the target named is HLA-B*57:01. The description is as above.
The target in test [15] is HLA-A*02:03. Put plainly: IEDB peptide-MHC binding, purified MHC/competitive/fluorescence; filed as Kd, often an IC50 or EC50 that approximates it; ≥ and ≤ were set here for values at or beyond the usual limits of such assays. Particulars: source organism: Human immunodeficiency virus 1.
The target in test [16] is HLA-A*30:01. Described as above. Particulars: source organism: Human immunodeficiency virus 1.
The target in test [17] is HLA-B*39:01. Described as above.
In test [18] the target is HLA-B*07:02. Put plainly: IEDB peptide-MHC binding, purified MHC/direct/fluorescence; filed as Kd, often an IC50 or EC50 that approximates it; ≥ and ≤ were set here for values at or beyond the usual limits of such assays.
The target of test [19] is HLA-B*58:01. The test is described as above.
For test [20], the target named is HLA-A*26:01. The test is described as follows: IEDB peptide-MHC binding, purified MHC/competitive/fluorescence; filed as Kd, often an IC50 or EC50 that approximates it; ≥ and ≤ were set here for values at or beyond the usual limits of such assays.
The target of test [21] is HLA-B*18:01. The description is as above.
In test [22] the target is HLA-B*27:03. The test is described as above.
The target of test [23] is HLA-B*15:09. The test is described as follows: IEDB peptide-MHC binding, purified MHC/direct/fluorescence; filed as Kd, often an IC50 or EC50 that approximates it; ≥ and ≤ were set here for values at or beyond the usual limits of such assays.
In test [24] the target is HLA-B*08:01. Described as above. To be noted: source organism: Influenza A virus (A/camel/Mongolia/1982(H1N1)).
Test [25] concerns the target HLA-B*40:01. The description is as above. To be noted: source organism: Influenza A virus (A/camel/Mongolia/1982(H1N1)).
Test [26] concerns the target HLA-A*02:01. The test is described as follows: IEDB peptide-MHC binding, purified MHC/competitive/fluorescence; filed as Kd, often an IC50 or EC50 that approximates it; ≥ and ≤ were set here for values at or beyond the usual limits of such assays. To be noted: source organism: Bos taurus.
In test [27] the target is HLA-A*03:01. The test is described as above. Particulars: source organism: Bos taurus.
Test [28] concerns the target HLA-A*24:03. Described as above. To be noted: source organism: Bos taurus.
In test [29] the target is HLA-A*29:02. The test is described as above. To be noted: source organism: Bos taurus.
In test [30] the target is HLA-A*68:02. The description is as above. Particulars: source organism: Bos taurus.
Test [31] deals with HLA-A*69:01. Described as above. To be noted: source organism: Bos taurus.
Test [32] addresses HLA-B*15:17. The description is as above.
Test [33] addresses HLA-B*46:01. Described as above.
Test [34] addresses HLA-B*51:01. The description is as above.
The target of test [35] is HLA-B*57:01. Described as above.
In test [36] the target is HLA-A*02:03. Put plainly: IEDB peptide-MHC binding, purified MHC/direct/fluorescence; filed as Kd, often an IC50 or EC50 that approximates it; ≥ and ≤ were set here for values at or beyond the usual limits of such assays. To be noted: source organism: Orthohantavirus negraense.
For test [37], the target named is HLA-A*26:01. The test is described as above. To be noted: source organism: Orthohantavirus negraense.
In test [38] the target is HLA-B*57:01. The test is described as follows: IEDB peptide-MHC binding, purified MHC/competitive/radioactivity; filed as Kd, often an IC50 or EC50 that approximates it; ≥ and ≤ were set here for values at or beyond the usual limits of such assays.
Where [39] appears, read: source organism: Mycobacterium tuberculosis.
The mark [40] stands for this setting: source organism: Tai Forest virus - Cote d'Ivoire, Cote d'Ivoire, 1994.
The mark [41] stands for this setting: source organism: Tai Forest ebolavirus.
[42] abbreviates: source organism: West Nile virus.
The mark [43] stands for this setting: source organism: Influenza A virus (A/camel/Mongolia/1982(H1N1)).
The mark [44] stands for this setting: source organism: Orthohantavirus negraense.

On to EKAAWGVAL, for which the Kd in test [1] (setting [39]), in test [2] (setting [39]), in test [3] (setting [39]), in test [4] (setting [39]), in [5] (setting [39]) and in test [6] (setting [39]) was ≥ 20 µM in each case. For the same sequence, the Kd in [7] (setting [39]) was ≥ 20 µM; in test [8] (setting [39]), ≥ 20 µM; in test [9], ≥ 20 µM; in test [10] (setting [39]) it was ≥ 20 µM; in test [11] (setting [39]) it was 0.052 µM; in test [12] (setting [39]), ≥ 20 µM. For the same sequence, the Kd in [13] (setting [39]) and in test [14] (setting [39]) was ≥ 20 µM in each case.
For EKLKSLYNTV, the Kd in test [15] was 0.643 µM; in test [16], 0.175 µM; in [17] (source organism: Human immunodeficiency virus 1), 2.81 µM.
Regarding FAEGVIAFL, the Kd in test [1] (setting [40]), in test [3] (setting [40]), in test [4] (setting [40]), in test [6] (setting [40]), in test [18] (setting [40]) and in test [8] (setting [40]) was ≥ 20 µM in each case. Further, the Kd in [10] (setting [40]) is ≥ 20 µM; in test [11] (setting [40]), 0.539 µM; in [12] (setting [40]) it was ≥ 20 µM; in test [13] (setting [40]), ≥ 20 µM; in [14] (setting [40]), ≥ 20 µM; in [19] (setting [40]), ≥ 20 µM. Further, the Kd in [20] (setting [41]), in test [21] (setting [41]) and in test [22] (setting [41]) was ≥ 20 µM in each case.
Take GRGPIRFVL: the Kd in test [1] (setting [42]), in [2] (setting [42]), in test [3] (setting [42]), in test [4] (setting [42]), in [5] (setting [42]) and in test [6] (setting [42]) was ≥ 20 µM in each case. For the same sequence, the Kd in test [7] (setting [42]), in [18] (setting [42]), in test [8] (setting [42]), in [23] (setting [42]), in test [12] (setting [42]) and in test [13] (setting [42]) was ≥ 20 µM each time. The Kd in [14] (setting [42]) and in test [19] (setting [42]) was ≥ 20 µM in each case.
Regarding HIPEVCLKW, the Kd in test [1] (setting [43]), in [2] (setting [43]), in test [3] (setting [43]), in [6] (setting [43]), in [7] (setting [43]) and in test [18] (setting [43]) was ≥ 20 µM throughout. Also, the Kd in [24], in [8] (setting [43]), in test [23] (source organism: Influenza A virus H3N2), in [10] (setting [43]), in test [25] and in test [12] (setting [43]) was ≥ 20 µM each time. Besides, the figures for the Kd in [13] (setting [43]) and in test [19] (setting [43]) were ≥ 20 µM and 0.121 µM, respectively.
Consider KLGEGFKSL, for which the Kd was 0.0151 µM in [26]; ≥ 20 µM in [27]; ≥ 20 µM in test [28]; ≥ 20 µM in test [20] (source organism: Bos taurus); ≥ 20 µM in [29]; ≥ 20 µM in test [30]. For the same sequence, the Kd in test [31], in test [32] (source organism: Bos taurus), in test [21] (source organism: Bos taurus), in test [22] (source organism: Bos taurus), in [17] (source organism: Bos taurus) and in test [33] (source organism: Bos taurus) was ≥ 20 µM throughout. Moreover, the Kd in test [34] (source organism: Bos taurus) and in [35] (source organism: Bos taurus) was ≥ 20 µM in each case.
NIYETEFFM: the Kd in test [36] is ≥ 20 µM; in test [3] (setting [44]), ≥ 20 µM; in test [37], 1.11 µM; in [32] (setting [44]) it was ≥ 20 µM; in test [21] (setting [44]) it was ≥ 20 µM; in test [22] (setting [44]) it was ≥ 20 µM. In addition, the Kd in [17] (setting [44]), in test [33] (setting [44]), in [34] (setting [44]) and in test [35] (setting [44]) was ≥ 20 µM each time.
PTAGVLARW: the Kd in test [38] (source organism: Dengue virus 3 Martinique/1243/1999) worked out at 0.0297 µM.
Consider STSLSMTCIA, for which the Kd in test [38] (source organism: Dengue virus 1 Brazil/97-11/1997) is 2.08 µM.
As for YRKEQQNAV, the Kd in [11] (source organism: Influenza A virus (A/Belfast/53582/2004(H3N?))) was determined as 0.62 µM.
